We go through 1 protein from article PMC3000947.

Substrate in data set [1]: O=C1C(O)=CC(=O)c2c(O)cc(O)cc21
Put plainly: purified protein. As to conditions: 2 mM GPP, 50 mM Hepes-NaOH pH 7.5, 5 mM MgCl2, 30 °C.

Substrate in data set [2]: Oc1cc(O)c2ccccc2c1
Briefly: purified protein. Conditions: 2 mM GPP, 50 mM Hepes-NaOH pH 7.5, 5 mM MgCl2, 30 °C.

B1: Fur7 (Streptomyces sp. KO-3988) (protein)
chain: MPGTDDVAVDVASVYSAIEKSAGLLDVTAAREVVWPVLTAFEDVLEQAVIAFRVATNARHEGDFDVRFTVPEEVDPYAVALSRSLIAKTDHPVGSLLSDIQQLCSVDTYGVDLGVKSGFKKVWVYFPAGEHETLARLTGLTSMPGSLAGNVDFFTRYGLADKVDVIGIDYRSRTMNVYFAAPSECFERETVLAMHRDIGLPSPSEQMFKFCENSFGLYTTLNWDTMEIERISYGVKTENPMTFFARLGTKVEHFVKNVPYGVDTQKMVYAAVTSSGEEYYKLQSYYRWRSVSRLNAAYIAARDKEST
As a reminder, the Km is the concentration of substrate that gives half-maximal velocity. As a reminder, the kcat/Km is the turnover number divided by the Michaelis constant. B1: in data set [1], the Michaelis-Menten constant (Km) was 48 ± 2 µM, the kcat is reported as 28 ± 3 × 10^-3 s^-1 and the specificity constant (kcat/Km) amounted to 580 M⁻¹ s⁻¹. In data set [2], the Km is 320 ± 20 µM, the kcat is 0.13 ± 0.05 × 10^-3 s^-1 and the kcat/Km stood at 0.41 M⁻¹ s⁻¹.
